Changes are numbered by the printed parent chain.

Series [1] deals with HepG2 cells. Kind of series: Half-life of CYP4B1/EGFP fusion proteins after cycloheximide (western blot, FACS). In kind it is cell-based, human. To be noted: EGFP fusion, 50 μg/ml cycloheximide, G418-selected HepG2 cells. As for the experimental part: FIGS. 3 C and D show CYP4B1 stability as analysed by western blotting and by flow cytometry. The studies on protein expression and stability were performed with the rabbit and human CYP4B1/EGFP fusion construction in the lentiviral vector with the additional IRES-neomycin cassette. Half-life analysis was performed by adding 50 μg/ml cycloheximide to the transduced and G418-selected HepG2 cells. Samples were collected at the indicated time points.
(§1) Next, it was analyzed whether the different activities of the human and the rabbit proteins in processing 4-IPO could be explained by differences in protein half-life. However, as no antibody was available that can detect both CYP4B1 proteins, EGFP fusion constructs were generated. With these constructs, EGFP antibodies can be utilized to visualize and compare the expression levels and the half-lives of the fusion proteins in cells by western blots. EGFP expression can also be used for flow cytometry assessment of the expression levels due to the fluorescent properties of the fusion proteins. 5′- and 3′-fusions of EGFP with the native rabbit P422 and the human P427 CYP4B1 proteins were cloned in LV vectors with an IRES-NEO (NEO=neomycin phosphotransferase cDNA, npt II) and stably expressed in HepG2 cells (FIG. 3 B). For comparison, the corresponding IRES-EGFP constructs were also included, as these vectors had already been used in previous experiments and activity measurements thus already existed. Transduced cells were incubated for 24, 48 and 72 hours with increasing concentration of 4-IPO. Cultures were then harvested, cells stained with propidium iodine and subsequently analyzed for survival of transduced EGFP+ cells by flow cytometry (FIG. 3 A).
After standard inhibition of de novo protein synthesis by cycloheximide, the half-life of the CYP4B1 proteins in stably transduced and G418-resistant HepG2 cells was assessed by determining the protein expression levels over time either in western blotting or in FACS analysis as EGFP fluorescence. […] For the human native protein (h-S427), the mean fluorescence indicates a short average half-life of only 6 hours.
In general terms: In western blotting, separated proteins are transferred to a membrane and probed.

Another series relates to primary human T-cells. As to the kind of experiment: 4-IPO toxicity in transduced primary T-cells. The format is cell-based. The text has this:
Compared to the HepG2 liver cells, primary T-cells might not provide an optimal environment for the function of P450 cytochromes (although the necessary reductase is ubiquitously expressed) and the infection of primary T-cells is considerably more complex.
The T cells were isolated by Ficoll and stimulated with CD3, CD28 and IL2 for 3 days before they were infected with lentiviral vectors using fibronectin. For optimal toxicity in T cells, the suicide genes were not expressed as EGFP fusions proteins but a IRES-EGFP-WPRO vector construct was used. […] However, after 24 hours over 70% of the transgenic T cells were eliminated by CYP4B1 P427 mut12. […] The determination of the virus titer was based on the titration of the reference cell line HT1080.

The test system of series [2] is HepG2 cells. As to the kind of experiment: 4-IPO toxicity assay: survival of transduced HepG2 cells by flow cytometry (propidium iodine). To be noted: for 4-IPO processing activity / cell killing (in words): transduced cells challenged with 4-IPO; for cell survival rates upon administration of 4-IPO: transduced cells. In kind it is cell-based, human.
Description: Initially, the serine at position 427 in the human CYP4B1 was mutated back to proline (h-P427), which is present at this position in all CYP4B1 proteins. Additionally a proline to serine exchange was created in the native rabbit CYP4B1 enzyme at the corresponding position 422 (r-P422). To immediately exclude the possibility that the different activities between human and the rabbit protein isoforms are simply due to differences in mRNA stability, the human CYP4B1 cDNA (SEQ ID NO.: 2) was optimized for human-codon usage (SEQ ID NO.: 3) by de novo synthesis with silent mutagenesis of the cDNA, thus removing internal TATA-boxes, instability motives, RNA secondary structures and (cryptic) splice donor/acceptor sites and ensuring an average GC content of around 60%. All cDNAs were cloned into the same lentiviral (LV) HIV1-based expression vector and LV supernatants produced by plasmid transfection in HEK293T cells. Subsequently, the two rabbit and the four human cDNAs were stably expressed in the human liver cell line HepG2. Stably expressing transduced cells were challenged after five days with increasing concentrations of 4-IPO for 24, 48 and 72 hours and then the survival of cells analyzed by flow cytometry using propidium iodine for live/dead cell discrimination.
as §1
On the technique in general: A flow cytometer gives signals particle by particle.

B1: h-P427: human CYP4B1 with serine at position 427 mutated back to proline (protein)
chain: MVPSFLSLSFSSLGLWASGLILVLGFLKLIHLLLRRQTLAKAMDKFPGPPTHWLFGHALEIQETGSLDKVVSWAHQFPYAHPLWFGQFIGFLNIYEPDYAKAVYSRGDPKAPDVYDFFLQWIGKGLLVLDGPKWFQHRKLLTPGFHYDVLKPYVAIFADSTRIMLEKWEKKACEGKSFDIFSDVGHMALDTLMKCTFGKGDSGLNHRDSSYYVAVSELTLLMQQRIDSFQYHNDFIYWLTPHGRRFLRACQVAHDHTDQVIRERKAALQDEKVRKKIQNRRHLDFLDILLGARDEDDIKLSDADLRAEVDTFMFEGHDTTTSGISWFLYCMALYPEHQHRCREEVREILGDQDFFQWDDLGKMTYLTMCIKESFRLYPPVPQVYRQLSKPVTFVDGRSLPAGSLISMHIYALHRNSAVWPDPEVFDPLRFSTENASKRHPFAFMPFSAGPRNCIGQQFAMSEMKVVTAMCLLRFEFSLDPSRLPIKMPQLVLRSKNGFHLHLKPLGPGSGK
Turning to B1, the protein half-life in the series on HepG2 cells [1] amounted to 20 h. In addition, the “killing of primary T-cells with 4-IPO (in words)” value in the series with primary human T-cells (24 h and 72 h exposure to increasing doses of 4-IPO, EGFP fusions, FIG. 7 B) was “can be killed within three days”. Also, the “4-IPO processing activity / cell killing (in words)” value in the series with HepG2 cells [2] was “rendered this enzyme active for processing 4-IPO”. For the same molecule, the “reduction in cell survival rates” value in the series with HepG2 cells [2] (transduced cells with 4-IPO, FIG. 2) was “about 50%”. Also, the “cell survival rates upon administration of 4-IPO” value with HepG2 cells [2] (FIG. 2) is “about 45%”.

B2: CYP4B1 P427 mut18: modified human CYP4B1 P427 with sections 1+2+3 of the rabbit protein; differs in 19 amino acids (protein)
chain: B1 chain
B2: the “4-IPO processing activity / cell killing (in words)” value with HepG2 cells [2] (listed as human P427 CYP4B1 protein with sections 1+2+3) was “almost as high as the activity of native rabbit protein”; in the series on HepG2 cells [2] (listed as modified human CYP4B1 P427 protein with sections 1+2+3 of the rabbit protein), “increased activity for toxifying 4-IPO”. Besides, the cell survival rates result with HepG2 cells [2] (within 72 hours upon applying 4-IPO, FIG. 6 D) was “about 10%”.

B3: CYP4B1 P427 mut12: modified human CYP4B1 P427 protein comprising 12 further amino acid exchanges found in other human CYP4 proteins (protein)
chain: B1 chain with E166D, C173R, S182C, N205G, V213L, D227V
B3: in the series on primary human T-cells (after 24 hours, 4-IPO, IRES-EGFP-WPRO vector, FIG. 17), the “transgenic T cells eliminated” value is “over 70%”. In addition, the “4-IPO processing activity / cell killing (in words)” value in the series on HepG2 cells [2] is listed as “equally good killing curve as the modified human CYP4B1 P427 mut18”.

B4: modified human CYP4B1 P427 protein with the additional section 1 of the rabbit protein: differs in only four amino acid from the native human CYP4B1 protein (protein)
chain: MVPSFLSLSFSSLGLWASGLILVLGFLKLIHLLLRRQTLAKAMDKFPGPPTHWLFGHALEIQETGSLDKVVSWAHQFPYAHPLWFGQFIGFLNIYEPDYAKAVYSRGDPKAPDVYDFFLQWIGKGLLVLDGPKWFQHRKLLTPGFHYDVLKPYVAVFTESTRIMLDKWEEKAREGKSFDIFCDVGHMALNTLMKCTFGRGDTGLGHRDSSYYLAVSDLTLLMQQRLVSFQYHNDFIYWLTPHGRRFLRACQVAHDHTDQVIRERKAALQDEKVRKKIQNRRHLDFLDILLGARDEDDIKLSDADLRAEVDTFMFEGHDTTTSGISWFLYCMALYPEHQHRCREEVREILGDQDFFQWDDLGKMTYLTMCIKESFRLYPPVPQVYRQLSKPVTFVDGRSLPAGSLISMHIYALHRNSAVWPDPEVFDPLRFSTENASKRHPFAFMPFSAGPRNCIGQQFAMSEMKVVTAMCLLRFEFSLDPSRLPIKMPQLVLRSKNGFHLHLKPLGPGSGK
With B4, in the series on HepG2 cells [2], the “4-IPO processing activity / cell killing (in words)” value is given as “increased activity for toxifying 4-IPO”.

B5: coop H-P427: h-P427 expressed from cDNA optimized for human codon usage (protein, listed as Homo sapiens)
chain: B4 chain with K124R, D130E, F135L, P427S
Regarding B5, the “cell survival rates upon administration of 4-IPO” value with HepG2 cells [2] (FIG. 2) came to 37%.

B6: r-S422: rabbit CYP4B1 with proline-to-serine exchange at position 422 (protein, UniProt P15128 1-506, looked up, variant P422S)
Cytochrome P450 4B1: MLGFLSRLGLWASGLILILGFLKLLRLLLRRQRLARAMDSFPGPPTHWLFGHALEIQKTGSLDKVVTWTQQFPYAHPLWVGQFIGFLNIYEPDYAKAVYSRGDPKAPDVYDFFLQWIGKGLLVLDGPKWFQHRKLLTPGFHYDVLKPYVAIFADSTRIMLEKWEKKACEGKSFDIFSDVGHMALDTLMKCTFGKGDSGLNHRDSSYYVAVSELTLLMQQRIDSFQYHNDFIYWLTPHGRRFLRACRAAHDHTDRVIRQRKAALQDEKEREKIQNRRHLDFLDILLDVRGESGVQLSDTDLRAEVDTFMFEGHDTTTSGISWFLYCMALYPEHQQRCREEVREILGDQDSFQWEDLAKMTYLTMCMKECFRLYPPVPQVYRQLSKPVSFVDGRSLPAGSLISLHIYALHRNSDVWPDPEVFDSLRFSPENSSGRHPYAFIPFSAGPRNCIGQQFAMNEMKVVTALCLLRFEFSVDPLRLPIKLPQLVLRSKNGIHLYLKPLGPKAEK
For the molecule B6, the protein half-life entry with HepG2 cells [1] is recorded as “approx. 30 hours”. Also, the “transduced HepG2 cells eliminated / dead” value with HepG2 cells [2] (after 24 hours of 4-IPO treatment, FIG. 2) is listed as 73%.

B7: variant of hCYP4B1 having an insertion of a serine at position 207: human CYP4B1 variant with serine insertion at amino acid position 207 (protein, listed as Homo sapiens)
chain: MVPSFLSLSFSSLGLWASGLILVLGFLKLIHLLLRRQTLAKAMDKFPGPPTHWLFGHALEIQETGSLDKVVSWAHQFPYAHPLWFGQFIGFLNIYEPDYAKAVYSRGDPKAPDVYDFFLQWIGRGLLVLEGPKWLQHRKLLTPGFHYDVLKPYVAVFTESTRIMLDKWEEKAREGKSFDIFCDVGHMALNTLMKCTFGRGDTGLGHSRDSSYYLAVSDLTLLMQQRLVSFQYHNDFIYWLTPHGRRFLRACQVAHDHTDQVIRERKAALQDEKVRKKIQNRRHLDFLDILLGARDEDDIKLSDADLRAEVDTFMFEGHDTTTSGISWFLYCMALYPEHQHRCREEVREILGDQDFFQWDDLGKMTYLTMCIKESFRLYPPVPQVYRQLSKPVTFVDGRSLPAGSLISMHIYALHRNSAVWPDPEVFDSLRFSTENASKRHPFAFMPFSAGPRNCIGQQFAMSEMKVVTAMCLLRFEFSLDPSRLPIKMPQLVLRSKNGFHLHLKPLGPGSGK
modifications: serine insertion at 207
In the case of B7, the “4-IPO processing activity / cell killing (in words)” value in the series on HepG2 cells [2] is reported as “did not reveal any functional differences”.
